In the supplement of paper PMC12042874:
± gives the uncertainty stated by the source.

assay: amyloid nucleation score (Sup35N fusion, yeast selection) (log enrichment); library NNK1; higher = more nucleation; inactive = no reads after selection
How it was run: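 The nucleation score is the log enrichment of output over input reads, calculated with DiMSum and centred on the mode score of non-aggregating sequences. Sequences with under 100 input reads were excluded. Reads came from Illumina sequencing of plasmid inserts from psi-negative yeast expressing Sup35N fused to peptides of 20 random codons, induced 24 hours with 100 μM copper sulfate and grown 7 days at 30°C without adenine and uracil.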

Going from IVDSHVSIATYRLEELRRTL to DRGMMCALVFYRHL, the amyloid nucleation score falls from 2.11 ± 0.27 to 0.691 ± 0.56.

Compared with IIFGCCVF, VPCDIYQCFYLSG is lower in amyloid nucleation score: 7.982 ± 0.062 for the first, 5.25 ± 0.094 for the second.

First: TCGLHQPFLGLFVSSSSIMT
Second: ENPDW
The amyloid nucleation score of the first is lower: 0.175 ± 0.41 for the first, 1.66 ± 0.73 for the second.

RLLPYILMTFLHEYVGAGYE and GYLSHII are within error of each other in amyloid nucleation score: 0.561 ± 0.37 for the first, -0.112 ± 0.51 for the second.

ECYGIR and ICACIMELCSLLHGIRGM are within error of each other in amyloid nucleation score: 0.893 ± 0.26 for the first, -0.378 ± 1.4 for the second.

Going from FPYGSVIVVFVDFWYRLSSV to RCISIRAYVTLFRNEYLCSN, the amyloid nucleation score rises from -0.343 ± 0.34 to 4.86 ± 0.1.

VHFDRCDLWPGMM and SEGKHNCKLT are within error of each other in amyloid nucleation score: 0.136 ± 0.76 for the first, -0.635 ± 0.95 for the second.

SPHSLTFSLMVMVRKKMMRS and SMPCQWR are within error of each other in amyloid nucleation score: 0.012 ± 1.4 for the first, 0.503 ± 0.51 for the second.

Compared with FWVAIRVRVIWVNKKNDGCI, RHMRFPWLKAHVIFIMQWQR is higher in amyloid nucleation score: -0.147 ± 0.66 for the first, 1.16 ± 0.54 for the second.

First: PYSAQAFERRSHAIRGVSKN
Second: MMNVTVKRFRLDQHRLIDCA
The amyloid nucleation score of the first is lower: -0.438 ± 0.44 for the first, 0.383 ± 0.34 for the second.

FNFRYPKDRGVSIVGCNFPM and EQAGVRVTDYVAVELLFWRF are within error of each other in amyloid nucleation score: -0.065 ± 0.51 for the first, 0.826 ± 0.39 for the second.

Compared with YSRTNMFQ, LWCITYH is higher in amyloid nucleation score: -0.649 ± 0.5 for the first, 4.14 ± 0.1 for the second.

LLALYCNDPKLEDSTLREFN and FRFGTA are within error of each other in amyloid nucleation score: 1.15 ± 0.71 for the first, 0.39 ± 0.49 for the second.

DDSFVLFW and HCPKAVGINEWPEMRFYVNL are within error of each other in amyloid nucleation score: -0.042 ± 0.55 for the first, -0.05 ± 0.96 for the second.

Going from VSTYRRDIMLHVITIENKLT to VNHTKPVDILHC, the amyloid nucleation score falls from 2.29 ± 0.6 to 0.521 ± 0.31.

First: CFQVYICVVDSDYRNFLWDA
Second: YREGHHPGWTMVKMMRTQVP
The amyloid nucleation score of the first is higher: 3.73 ± 0.077 for the first, 0.26 ± 0.6 for the second.

Compared with FDGFNFISWIVR, VLGMWIWQYRYGDDYFLLFV is higher in amyloid nucleation score: 2.06 ± 0.11 for the first, 2.7 ± 0.17 for the second.

MGNLATRWFQR and ISWRNYWY are within error of each other in amyloid nucleation score: -0.037 ± 1.4 for the first, 1.01 ± 0.22 for the second.

GNFKAMWFYPYRRCWQCT and TTWVVFFEPGAV are within error of each other in amyloid nucleation score: -0.944 ± 1.1 for the first, -0.297 ± 0.84 for the second.

NGCLFILFCILLFKAQPSIA and RLVNPRDCKFNDTRTFCSRR are within error of each other in amyloid nucleation score: 0.057 ± 0.78 for the first, 0.118 ± 0.52 for the second.

YMQGAFFQQTPSNLWQEGHY and CHNVAVPRVIVIGFDSGILY are within error of each other in amyloid nucleation score: -0.74 ± 0.84 for the first, 0.341 ± 0.7 for the second.

FYIVFFTCLASSS and AYAKLYKLSVLEPGRRVRMQ are within error of each other in amyloid nucleation score: 1.94 ± 0.29 for the first, 1.21 ± 0.57 for the second.

First: FFWYPTFISFDRKFEVTIGP
Second: DALII
The amyloid nucleation score of the first is higher: 5.07 ± 0.053 for the first, 0.257 ± 0.4 for the second.

CGAMGVVL and LGTCPYSPPEANN are within error of each other in amyloid nucleation score: 0.112 ± 0.26 for the first, -0.604 ± 0.5 for the second.

SSSYVYYEGRFILTFGLF and ADNRVQRYTDPFLGSVSMYK are within error of each other in amyloid nucleation score: -0.157 ± 0.47 for the first, 0.563 ± 0.49 for the second.

CSKSS and PFNFIPFAYRLYRKTYRTSH are within error of each other in amyloid nucleation score: -0.909 ± 2.7 for the first, 0.165 ± 0.46 for the second.

Going from VSASLDGPLSVRKGTSKAWD to GIEKLHDRITSLIFLSMGRR, the amyloid nucleation score rises from -0.043 ± 1.4 to 1.8 ± 0.19.

Compared with LIPCGPLFLFMQTNIDRANM, KLGTPLRQSDVS is lower in amyloid nucleation score: 7.845 ± 0.044 for the first, -0.461 ± 0.59 for the second.

First: AWWRCCGTLRTVRSAAKGLM
Second: ISINHVTCRLVFETGKWRWG
The amyloid nucleation score of the first is lower: -0.292 ± 1.1 for the first, 3.45 ± 0.086 for the second.

LNLVRLYVTSKCSLDATSVI and ACWLAKHKEYRLSGHVQEFD are within error of each other in amyloid nucleation score: -0.444 ± 1.2 for the first, 0.035 ± 0.52 for the second.

MSLSDNWGL and DMPFSDFMN are within error of each other in amyloid nucleation score: -0.288 ± 0.69 for the first, -0.096 ± 0.47 for the second.

GTWLSMLDSSV and LDRFCYLVYRRRCGYSRWQM are within error of each other in amyloid nucleation score: -0.32 ± 0.79 for the first, 0.527 ± 0.39 for the second.

Compared with NIVIIVVSNLN, TFYVRDRAGCPW is lower in amyloid nucleation score: 3.44 ± 0.082 for the first, 1.33 ± 0.73 for the second.

Going from TVFSSWLTQGSMYV to YCWFFMLWEYTCWLVF, the amyloid nucleation score falls from 1.48 ± 0.44 to 0.17 ± 0.28.

MDFYVLPNCRQNGMLCERSC and KKPCVTGYRKNRWEELEP are within error of each other in amyloid nucleation score: 0.508 ± 0.67 for the first, -0.393 ± 0.42 for the second.

DFTVA and DKPFCFILNYNSVYDCVMSV are within error of each other in amyloid nucleation score: 0.596 ± 0.78 for the first, 0.331 ± 1.2 for the second.

YRRVKM and MATSPFGERVPFIYLDHFCY are within error of each other in amyloid nucleation score: -0.089 ± 0.53 for the first, 0.009 ± 0.42 for the second.

RNQRSSMWVGNRCYGGRCVW and CDNGPLLIVGVRHRTRACVT are within error of each other in amyloid nucleation score: 0.898 ± 0.93 for the first, 0.861 ± 0.38 for the second.

GSATRTPVITQRICLPVGCR and GKCFVVMWRVLGVDSVLMEV are within error of each other in amyloid nucleation score: -0.691 ± 0.56 for the first, -0.414 ± 0.25 for the second.

SYLMQSFDKLCAA and WGRRLSR are within error of each other in amyloid nucleation score: -0.033 ± 1.1 for the first, 0.122 ± 0.5 for the second.

SSSVVSV and HYRYGGLAMFLVWIEMFLYW are within error of each other in amyloid nucleation score: 0.102 ± 0.33 for the first, 0.407 ± 1.1 for the second.

First: PKFSLMQLTPGLGTQ
Second: YRNGCTFGWWRWRR
The amyloid nucleation score of the first is higher: 3.13 ± 0.13 for the first, 1.08 ± 0.28 for the second.

LRENPQLGVVTGLTLGSDLP and HCFYYCMANRL are within error of each other in amyloid nucleation score: 0.19 ± 0.5 for the first, 0.488 ± 0.24 for the second.

CIVVMGSVAYHGRFYFVDVE and ICSNGRARPGNMSV are within error of each other in amyloid nucleation score: 1.43 ± 0.76 for the first, -0.047 ± 1.7 for the second.

MLNAIRSVGMSTHRSSEGG and IYQQIYN are within error of each other in amyloid nucleation score: -0.475 ± 0.77 for the first, -0.807 ± 2.4 for the second.

Compared with CSSALGIMKWTRIYVCRGRG, SYCLLIDLLLHSHVGLYSPM is lower in amyloid nucleation score: 1.6 ± 0.24 for the first, 0.519 ± 0.33 for the second.

ITVRAISMWWRDSS and VGSPGCMGLVTLNHVP are within error of each other in amyloid nucleation score: 0.263 ± 0.4 for the first, 0.522 ± 0.24 for the second.

MFTWEL and SGKVVNPCMNDSDLVLNRIW are within error of each other in amyloid nucleation score: 0.436 ± 1.2 for the first, -0.011 ± 0.23 for the second.

Compared with MFFLQCQMRLSLLVGNVLMR, HFLVMITRL is higher in amyloid nucleation score: -0.054 ± 0.56 for the first, 5.15 ± 0.091 for the second.

QFMGCRFKLSDSSIWKKSLR and FSCLNSFKRVFNFNIPASVC are within error of each other in amyloid nucleation score: 0.381 ± 0.64 for the first, -0.863 ± 1 for the second.

First: LRFPLARNHTGYQTGVTEFT
Second: NLRQHVYICYNLNGRTHFLW
The amyloid nucleation score of the first is lower: -0.526 ± 0.32 for the first, 6.719 ± 0.047 for the second.

First: WRYRSRCMGGVVDRLLCDVW
Second: KVLSYWDVSWGMASRFVSCY
The amyloid nucleation score of the first is higher: 3.33 ± 0.076 for the first, 0.724 ± 0.49 for the second.

YRHTVIVY and ARRGHKK are within error of each other in amyloid nucleation score: 1.13 ± 0.21 for the first, 1.32 ± 0.64 for the second.

First: KGDVPGYARCEVKTVRTFWM
Second: YLNILMSWI
The amyloid nucleation score of the first is higher: 0.231 ± 0.41 for the first, -0.921 ± 0.66 for the second.

EHGERAQGPISGMLGRKCIE and CTGFLRVWPLGEMYEDRR are within error of each other in amyloid nucleation score: 1.04 ± 0.98 for the first, 0.12 ± 0.58 for the second.

First: YTVPQSLSLLCSAYLILLDA
Second: IFISIVLLF
The amyloid nucleation score of the first is lower: 0.561 ± 0.43 for the first, 4.8 ± 0.079 for the second.

First: WRFLLWSFHSEAYLIVYS
Second: AVNSGRWLSVLRRRMESFLV
The amyloid nucleation score of the first is lower: -0.773 ± 0.49 for the first, 0.203 ± 0.42 for the second.

SYWCSHIIIERMLVLVHRIV and PVRQSL are within error of each other in amyloid nucleation score: 1.19 ± 0.59 for the first, 0.343 ± 0.33 for the second.

MFSLYYPFSNWFDLI and HHPYFSAMM are within error of each other in amyloid nucleation score: -0.001 ± 0.52 for the first, 0.22 ± 0.54 for the second.

FDFYSLRRGGVNYRSLLQVI and RDSAL are within error of each other in amyloid nucleation score: 0.25 ± 0.84 for the first, 0.274 ± 0.4 for the second.

With TLFYFMACGQLLFGKRWNWF the amyloid nucleation score was 0.095 ± 0.58.

In the case of GSYLCLMTFFSLYEQHSCCC, the amyloid nucleation score is reported as “inactive”.
In the case of LVLGWRFIVPRVNLISLGFV, the amyloid nucleation score is reported as “inactive”.
With WSYGSEPM the amyloid nucleation score was “inactive”.
For DSRYYTDADALVDR, the amyloid nucleation score was “inactive”.
For CSGWMNGLSRVKPAHL, the amyloid nucleation score was “inactive”.
With MYYLRHF the amyloid nucleation score was “inactive”.
For VNILDLKTHLRR, the amyloid nucleation score was “inactive”.
For SSVYFSRFTERQKAVRETGS, the amyloid nucleation score was “inactive”.
For WWIGNSTRYCVGMVWSI, the amyloid nucleation score was “inactive”.
For ISRGYHRYLFSKSNECGRLN, the amyloid nucleation score was “inactive”.
